Here are results for 5 molecules from patent US20200247894A1 (Regeneron, published 2020).

Test [1] concerns the target T1, Human IL2Rγ extracellular domain expressed with a C-terminal mouse IgG2a Fc tag (human).
T1 construct: whole entry is the Fc-fused construct; also called hIL-2Rg-mFc
T1 chain: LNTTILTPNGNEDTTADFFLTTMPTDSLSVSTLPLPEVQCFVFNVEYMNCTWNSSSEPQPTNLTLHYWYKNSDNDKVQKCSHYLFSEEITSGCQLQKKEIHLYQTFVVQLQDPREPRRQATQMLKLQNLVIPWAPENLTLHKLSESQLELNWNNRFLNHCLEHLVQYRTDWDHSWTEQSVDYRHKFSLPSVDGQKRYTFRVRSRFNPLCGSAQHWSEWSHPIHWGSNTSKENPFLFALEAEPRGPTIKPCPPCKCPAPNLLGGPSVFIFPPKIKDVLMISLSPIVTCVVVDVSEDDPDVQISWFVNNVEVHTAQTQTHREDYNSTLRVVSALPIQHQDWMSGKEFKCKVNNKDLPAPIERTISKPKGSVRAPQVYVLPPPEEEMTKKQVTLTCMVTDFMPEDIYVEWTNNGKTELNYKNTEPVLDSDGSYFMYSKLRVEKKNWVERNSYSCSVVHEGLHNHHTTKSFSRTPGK
Put plainly: SPR Biacore 4000, anti-hFc-captured mAb, 25 C. As to the method:
(§1) Equilibrium dissociation constants (KD values) for IL-2Rγ binding to purified anti-IL2Rγ monoclonal antibodies were determined using a Biacore 4000 instrument equipped with a real-time surface plasmon resonance biosensor. All binding studies were performed in 10 mM HEPES, 150 mM NaCl, 3 mM EDTA, and 0.05% v/v Surfactant Tween-20, pH 7.4 (HBS-ET) running buffer at 25° C. and 37° C. The Biacore sensor surface was first derivatized by amine coupling with a monoclonal mouse anti-human Fc antibody (GE, # BR-1008-39) to capture anti-IL2Rγ monoclonal antibodies.
(§2) The dissociation of monoclonal antibody bound IL2Rγ reagents were monitored for 8-10 minutes in HBS-ET running buffer. Kinetic association (kₐ) and dissociation (kd) rate constants were determined by fitting the real-time sensorgrams to a 1:1 binding model using Scrubber 2.0c curve fitting software. Binding dissociation equilibrium constants (KD) and dissociative half-lives (t_{1/2}) were calculated from the kinetic rate constants as: […]
For orientation: SPR reads the build-up and loss of mass on a sensor chip optically.

In test [2] the target is T2, Mouse IL2Rγ extracellular domain expressed with a C-terminal myc-myc-hexahistidine tag (mouse).
T2 construct: whole entry is the tagged construct; also called mIL-2Rg-MMH
T2 chain: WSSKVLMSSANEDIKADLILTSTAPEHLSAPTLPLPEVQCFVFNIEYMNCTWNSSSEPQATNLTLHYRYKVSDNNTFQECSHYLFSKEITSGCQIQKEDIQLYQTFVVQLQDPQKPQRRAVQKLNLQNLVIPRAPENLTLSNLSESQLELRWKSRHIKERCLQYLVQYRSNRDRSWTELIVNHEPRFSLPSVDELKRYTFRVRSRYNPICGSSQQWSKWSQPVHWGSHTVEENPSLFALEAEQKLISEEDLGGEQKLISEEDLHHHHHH
Put plainly: SPR Biacore 4000, anti-hFc-captured mAb, 25 C. As to the method: as §1, §2

Test [3] deals with T3, Rat IL2Rγ extracellular domain expressed with a C-terminal myc-myc-hexahistidine tag (rat).
T3 construct: whole entry is the tagged construct; also called rIL-2Rg-MMH; rat IL-2Rg-MMH
T3 chain: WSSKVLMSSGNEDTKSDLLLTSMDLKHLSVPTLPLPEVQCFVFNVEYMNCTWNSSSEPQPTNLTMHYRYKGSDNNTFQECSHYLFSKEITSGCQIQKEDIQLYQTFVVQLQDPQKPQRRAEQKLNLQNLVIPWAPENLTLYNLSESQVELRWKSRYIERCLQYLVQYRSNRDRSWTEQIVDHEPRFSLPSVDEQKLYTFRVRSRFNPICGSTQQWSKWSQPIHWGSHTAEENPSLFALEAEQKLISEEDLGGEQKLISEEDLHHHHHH
The experiment in a line: SPR Biacore 4000, anti-hFc-captured mAb, 25 C. As to the method:
as §1, §2

The target of test [4] is T4, Macaca fascicularis IL2Rγ extracellular domain expressed with a C-terminal myc-myc-hexahistidine tag (Macaca fascicularis).
T4 construct: whole entry is the tagged construct; also called mfIL-2Rg-MMH
T4 chain: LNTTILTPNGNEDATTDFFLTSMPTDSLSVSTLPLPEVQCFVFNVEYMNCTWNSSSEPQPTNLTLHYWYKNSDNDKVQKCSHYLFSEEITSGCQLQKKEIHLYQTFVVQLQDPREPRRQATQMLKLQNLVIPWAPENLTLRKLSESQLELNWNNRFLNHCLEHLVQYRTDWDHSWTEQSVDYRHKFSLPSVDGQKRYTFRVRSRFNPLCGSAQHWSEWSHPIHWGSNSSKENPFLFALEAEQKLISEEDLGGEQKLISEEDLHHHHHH
Put plainly: SPR Biacore 4000, anti-hFc-captured mAb, 37 C. As to the method: as §1, §2

The target in test [5] is T1, Human IL2Rγ extracellular domain …. Put plainly: SPR Biacore 4000, anti-hFc-captured mAb, 37 C. As to the method: as §1, §2
Test [6] deals with T2, Mouse IL2Rγ extracellular domain …. Put plainly: SPR Biacore 4000, anti-hFc-captured mAb, 37 C. As to the method: as §1, §2
The target in test [7] is T3, Rat IL2Rγ extracellular domain …. Put plainly: SPR Biacore 4000, anti-hFc-captured mAb, 37 C. As to the method:
as §1, §2

The term Kd denotes the constant that tells how readily two partners part at equilibrium. Read a high Kd as lower affinity. A word on the koff: it is the rate constant with which the complex falls apart. Low values mean slow dissociation, high ones fast dissociation. For orientation: kon means a measure of how fast the partners come together. Read a high kon as faster complex formation.

B1: H4H13541P (antibody, human IgG4 S228P, kappa, V domains shown)
VH: EVQLVESGGGVVRPGGSLRLSCAASGFIFDDYDMSWVRQPPGRGLEWVSGIDWFGGTRGYADSMKGRFTISRDNAKNSLYLQMNSLRVEDTAFYYCARGGAIVGAVTPFDYWGQGTLVTVSS
VL: DIQMTQSPSSLSASVGNRVTLSCRASQSINTYLSWYQQRPGKAPKLLIYAASSLQSGVPSRFSGSGAGTDFTLTISSLQPEDFATYYCQQSYSAPLTFGGGTKVEIKR
notes: fully human anti-IL2Rgamma mAb, human IgG4 Fc
As for B1, in test [1], the “50 nM Ag Bound” value was 24 RU, binding was characterised by a dissociation constant (Kd) of 1.8 nM, the dissociation rate constant (koff) is 8.84e-05 s⁻¹ and the on-rate constant (kon) was found to be 49200 M⁻¹ s⁻¹. In test [1], this molecule gave a t1/2 of 131 min. In test [2], the “100 nM Ag Bound” value came to 5 RU and the binding result is on record as “no binding (tested: 100 nM)”. Also, in test [3], the “100 nM Ag Bound” value came to 4 RU and the binding result is “no binding (tested: 100 nM)”. In test [4], the “100 nM Ag Bound” value was 111 RU; the affinity, expressed as Kd, was 7.1 nM; the off-rate (koff) stood at 0.000755 s⁻¹; the on-rate (kon) turned out to be 106000 M⁻¹ s⁻¹. The molecule also came in with a t1/2 in test [4] of 15 min. Moreover, in test [5], the “50 nM Ag Bound” value came out at 42 RU, binding was put at a Kd of 2.18 nM, the dissociation rate constant (koff) was determined as 0.000122 s⁻¹ and the association rate constant (kon) was found to be 56000 M⁻¹ s⁻¹. For the same molecule, in test [5], the t1/2 is 94 min. Further, the “100 nM Ag Bound” value in test [6] is 4 RU. Besides, in test [7], the “100 nM Ag Bound” value was determined as 5 RU.

B2: H4H13544P2 (antibody, human IgG4 S228P, kappa, V domains shown)
VH: QLQLQESGPGLVKPSETLSLTCTVSGGSISIKNYYWGWIRQPPGKGLEWIGSIYYSGTTYYNPSLKSRVTISVDTSKNQFSLKLSSVTAADTAVYHCARHGYSYGHGWFDPWGQGTLVTVSS
VL: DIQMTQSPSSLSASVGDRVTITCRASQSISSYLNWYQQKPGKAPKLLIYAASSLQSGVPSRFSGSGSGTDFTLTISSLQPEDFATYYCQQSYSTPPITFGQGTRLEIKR
notes: as for B1
For the molecule B2, the results for the “50 nM Ag Bound” value in test [1] and in test [5] were 63 RU and 88 RU, respectively. Further, the Kd in test [1] turned out to be 2.21 nM; in test [4], 52.1 nM; in test [5], 6.33 nM. Besides, the off-rate constant (koff) came out at 0.000246 s⁻¹ in test [1], 0.00612 s⁻¹ in test [4] and 0.000801 s⁻¹ in test [5]. Also, the kon in test [1] is 111000 M⁻¹ s⁻¹; in test [4] it was 118000 M⁻¹ s⁻¹; in test [5] it was 126000 M⁻¹ s⁻¹. The figures for the t1/2 in test [1], in test [4] and in test [5] were 47 min, 1.9 min and 14 min, respectively. In addition, the “100 nM Ag Bound” value in test [2] came to 3 RU; in test [3], 3 RU; in test [4] it was 60 RU; in test [6], 4 RU; in test [7] it was 4 RU. Moreover, the binding result in test [2] and in test [3] was “no binding (tested: 100 nM)” in each case.

B3: H4H13538P (antibody, human IgG4 S228P, kappa, V domains shown)
VH: EVQLVESGGGLVQPGGSLGLSCAASGFTFSNYAMSWVRQAPGKGLEWVSAVSGGGGGTYYADSVKGRFTISRDNSKNTVLLQMNSLRAEDTAVYYCARGRTGGLDYWGPGTLVTVSS
VL: DVVMTQSPLSLPVIFGQPASISCRSSQSLVDSDGNTYLNWLQQRPGQSPRRLIYEVSNRDSGVPDRFSGSGSGTDFTLTISRVEAEDVGIYYCMQGTRWPPTFGGGTKVEIKR
notes: as for B1
For B3, in test [1], the “50 nM Ag Bound” value was found to be 38 RU, binding was put at a Kd of 0.996 nM, the koff was determined as 0.000116 s⁻¹ and the on-rate constant (kon) turned out to be 117000 M⁻¹ s⁻¹. Besides, in test [1], the t1/2 was 99 min. Further, in test [2], the “100 nM Ag Bound” value came out at 4 RU and the binding result was “no binding (tested: 100 nM)”. Further, in test [3], the “100 nM Ag Bound” value is 3 RU and the binding result is given as “no binding (tested: 100 nM)”. Further, in test [4], the “100 nM Ag Bound” value worked out at 115 RU, binding was put at a Kd of 5.5 nM, the koff was 0.000932 s⁻¹ and the kon is 169000 M⁻¹ s⁻¹. In addition, the t1/2 in test [4] was 12 min. Besides, in test [5], the “50 nM Ag Bound” value was 70 RU; the affinity, expressed as Kd, was 1.29 nM; the koff was 0.000187 s⁻¹; the kon was 144000 M⁻¹ s⁻¹. Moreover, in test [5], the t1/2 worked out at 62 min. The “100 nM Ag Bound” value in test [6] was determined as 5 RU. In addition, in test [7], the “100 nM Ag Bound” value came to 5 RU.

B4: H4H13545P2 (antibody, human IgG4 S228P, kappa, V domains shown)
VH: QVQLQQSGPGLVKPSQTLSLTCDISGDSVSSNIATWNWIRQSPSRGLEWLGRTYYRSKWYKDYAVSVKSRITINPDTSKNQFSLQVNSVTPEDTAVYYCARMTGPRYYFEYWGQGTLVTVSS
VL: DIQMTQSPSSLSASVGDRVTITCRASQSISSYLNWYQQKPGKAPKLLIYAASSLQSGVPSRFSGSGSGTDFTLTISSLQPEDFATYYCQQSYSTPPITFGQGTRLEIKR
notes: as for B1
Regarding B4, the “50 nM Ag Bound” value stood at 64 RU in test [1] and 59 RU in test [5]. In addition, the Kd in test [1] was determined as 12 nM; in test [4], 88.6 nM; in test [5], 30 nM. Moreover, the koff turned out to be 0.00211 s⁻¹ in test [1], 0.0129 s⁻¹ in test [4] and 0.00737 s⁻¹ in test [5]. In addition, the values for the kon in test [1], in test [4] and in test [5] were 175000 M⁻¹ s⁻¹, 146000 M⁻¹ s⁻¹ and 246000 M⁻¹ s⁻¹, respectively. In addition, the t1/2 in test [1] was 5 min; in test [4], 0.9 min; in test [5], 1.6 min. Moreover, the “100 nM Ag Bound” value worked out at 4 RU in test [2]; 4 RU in test [3]; 21 RU in test [4]; 2 RU in test [6]; 3 RU in test [7]. Further, the binding result in test [2] and in test [3] was “no binding (tested: 100 nM)” in each case.

B5: H4H12924P2 (antibody, human IgG4 S228P, kappa, V domains shown)
VH: EVQLVESGGGLVQPGRSLRLSCAASGFTLEDYAMHWVRQAPGKGLEWVSGISWNRGSTGYADSVKGRFTISRDNAKNSLYLQMTSLRAEDTALYYCAKGFYSMDVWGQGTTVTVSS
VL: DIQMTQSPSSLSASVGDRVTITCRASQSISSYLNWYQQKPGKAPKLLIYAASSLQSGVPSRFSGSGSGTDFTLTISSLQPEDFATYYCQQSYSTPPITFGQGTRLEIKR
notes: as for B1
Consider B5, for which, in test [1], the “50 nM Ag Bound” value worked out at 28 RU, the Kd is 5.66 nM, the off-rate (koff) turned out to be 0.000411 s⁻¹ and the kon is 72600 M⁻¹ s⁻¹. The molecule also yielded a t1/2 in test [1] of 28 min. Besides, the “100 nM Ag Bound” value in test [2] was determined as 2 RU. In test [3], the “100 nM Ag Bound” value was 3 RU and the binding result is reported as “no binding (tested: 100 nM)”. Further, in test [4], the “100 nM Ag Bound” value came to 24 RU, binding was put at a Kd of 20.7 nM, the koff stood at 0.0137 s⁻¹ and the on-rate (kon) is 662000 M⁻¹ s⁻¹. Also, the t1/2 in test [4] came to 0.8 min. Further, in test [5], the “50 nM Ag Bound” value was found to be 13 RU, the Kd stood at 12.2 nM, the koff is 0.000183 s⁻¹ and the kon was determined as 15000 M⁻¹ s⁻¹. The t1/2 in test [5] came to 63 min. Also, the “100 nM Ag Bound” value in test [6] was -1 RU. Moreover, the “100 nM Ag Bound” value in test [7] was determined as 3 RU.
